Results on 14 molecules are retold here after patent publication US20240034757A1 (OXFORD UNIVERSITY INNOVATION, published 2024).

Changes are numbered by the printed parent chain. Where two headings read alike, the source gives them in different places.

One experiment addresses T1, P467_RHIPU (Rhipicephalus pulchellus, UniProt L7M8Z8 22-127).
T1 sequence: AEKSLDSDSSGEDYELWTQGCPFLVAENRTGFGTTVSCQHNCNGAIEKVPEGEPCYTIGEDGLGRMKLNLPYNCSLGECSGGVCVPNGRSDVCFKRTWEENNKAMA
The experiment can be described thus: BLI.

A further experiment concerns the target T2, P546_AMBCA (Amblyomma cajennense, UniProt A0A023FBW7 22-118).
T2 sequence: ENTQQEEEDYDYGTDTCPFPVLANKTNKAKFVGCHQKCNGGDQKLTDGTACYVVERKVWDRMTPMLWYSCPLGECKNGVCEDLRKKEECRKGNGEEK
In words: BLI.

Experiment [1] has as its target T3, P1243_AMBAM (Amblyomma americanum, UniProt A0A0C9S461 26-123).
T3 sequence: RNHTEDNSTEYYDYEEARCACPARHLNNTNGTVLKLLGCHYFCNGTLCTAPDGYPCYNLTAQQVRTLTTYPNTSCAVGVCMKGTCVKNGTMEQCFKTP
The experiment can be described thus: BLI.

In the next experiment the target is T4, P974_AMBCA (Amblyomma cajennense, UniProt A0A023FDY8 22-118).
T4 sequence: T2 sequence with E8Q, S69E, E88D
The experiment can be described thus: BLI.

Another experiment has as its target T5, P985_AMBPA (Amblyomma parvum, UniProt A0A023FT45 25-132).
T5 sequence: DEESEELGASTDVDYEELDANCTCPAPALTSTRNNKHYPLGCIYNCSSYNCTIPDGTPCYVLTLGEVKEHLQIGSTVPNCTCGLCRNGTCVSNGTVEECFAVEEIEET
In words: BLI.

The target in experiment [2] is T3, P1243_AMBAM. In words: BLI. The source holds these as a separate data set.
The target in a further experiment is T6, CXCL9_HUMAN (human, UniProt Q07325 23-125).
T6 sequence: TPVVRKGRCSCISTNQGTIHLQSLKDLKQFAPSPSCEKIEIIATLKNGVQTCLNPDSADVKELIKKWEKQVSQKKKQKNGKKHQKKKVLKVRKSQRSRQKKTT
In words: BLI.

In the next experiment the target is T7, P991_AMBCA (Amblyomma cajennense, UniProt A0A023FFD0 29-136).
T7 sequence: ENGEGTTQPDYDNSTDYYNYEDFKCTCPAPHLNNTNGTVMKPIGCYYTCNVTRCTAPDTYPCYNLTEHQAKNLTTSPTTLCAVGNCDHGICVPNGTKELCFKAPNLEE
In words: BLI.

Another experiment has as its target T8, CXCL10_HUMAN (human, UniProt P02778 22-98).
T8 sequence: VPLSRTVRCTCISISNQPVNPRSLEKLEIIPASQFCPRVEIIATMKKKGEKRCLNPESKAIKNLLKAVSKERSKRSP
In words: BLI.

In the next experiment the target is T9, CXCL11_HUMAN (human, UniProt O14625 22-94).
T9 sequence: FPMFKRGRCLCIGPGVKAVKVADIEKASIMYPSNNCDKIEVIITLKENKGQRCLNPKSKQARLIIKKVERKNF
The experiment can be described thus: BLI.

Another experiment concerns the target CXCL12_HUMAN (human, UniProt P48061 22-89). In words: BLI.
The next experiment deals with T10, CXCL14_HUMAN (human, UniProt O95715 35-111).
T10 sequence: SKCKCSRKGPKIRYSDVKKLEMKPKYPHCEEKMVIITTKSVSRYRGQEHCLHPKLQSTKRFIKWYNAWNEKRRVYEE
The experiment can be described thus: BLI.

The next experiment addresses T11, CXCL7_HUMAN (human, UniProt P02775 59-128).
T11 sequence: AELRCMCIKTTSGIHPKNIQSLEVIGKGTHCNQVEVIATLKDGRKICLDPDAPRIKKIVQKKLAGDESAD
In words: BLI [Cont.].

Another experiment addresses T12, CXCL8_HUMAN (human, UniProt P10145 28-99).
T12 sequence: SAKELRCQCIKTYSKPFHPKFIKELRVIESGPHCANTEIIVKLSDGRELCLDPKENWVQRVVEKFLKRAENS
In words: BLI [Cont.].

For another experiment, the target named is T13, CXCL4_HUMAN (human, UniProt P02776 32-101).
T13 sequence: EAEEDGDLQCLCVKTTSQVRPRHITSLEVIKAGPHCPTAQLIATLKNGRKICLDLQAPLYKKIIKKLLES
The experiment can be described thus: BLI [Cont.].

A further experiment addresses T14, P1180_AMBTR (Amblyomma triste, UniProt A0A023G6B6 26-116).
T14 sequence: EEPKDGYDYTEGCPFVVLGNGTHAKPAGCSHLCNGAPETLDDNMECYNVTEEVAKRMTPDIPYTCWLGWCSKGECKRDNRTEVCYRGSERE
The experiment can be described thus: BLI.

The target of a further experiment is T15, P1181_AMBMA (Amblyomma maculatum, UniProt G3MIX6 26-115).
T15 sequence: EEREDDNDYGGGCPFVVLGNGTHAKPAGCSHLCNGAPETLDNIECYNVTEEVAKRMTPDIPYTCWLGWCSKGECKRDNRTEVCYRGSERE
The experiment can be described thus: BLI.

The target of another experiment is T16, P1182_AMBMA (Amblyomma maculatum, UniProt G3MJ83 27-115).
T16 sequence: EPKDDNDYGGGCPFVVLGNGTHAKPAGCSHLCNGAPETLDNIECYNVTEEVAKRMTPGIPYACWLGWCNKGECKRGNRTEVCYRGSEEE
In words: BLI.

CXCL12_HUMAN, sequence (P48061 22-89 limits assumed): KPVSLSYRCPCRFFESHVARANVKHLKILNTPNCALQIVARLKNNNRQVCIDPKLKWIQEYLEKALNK

B1: CCL1_HUMAN (ligand)
chain: KSMQVPFSRCCFSFAEQEIPLRAILCYRNTSSICSNEGLIFKLKRGKEACALDTVGWVQRHRKMLRHCPSKRK
On to B1, for which the Kd in the experiment with P467_RHIPU is 53.4 nM; in the experiment with P546_AMBCA it was 160 nM; with P1243_AMBAM [1] it was 21.3 nM; with P974_AMBCA it was 70.5 nM; in the experiment with P985_AMBPA it was 8.3 nM; with P1243_AMBAM [2] it was 21.2 nM.

B2: CCL24_HUMAN (ligand)
chain: VVIPSPCCMFFVSKRIPENRVVSYQLSSRSTCLKAGVIFTTKKGQQFCGDPKQEWVQRYMKNLDAKQKKASPRARAVA
Consider B2, for which, in the experiment with P1243_AMBAM [2], the Kd was 7.39 nM.

B3: P1095_IXORI (other)
chain: HSPVAGSEVQKLTSDPNDDIDVSYCGMNCTVVNGKSDECSENCKCLHEGDDPKGICVAITYFGDWGDPNDDPKINEATPQTQIFEKKRK
For the molecule B3, the binding result with CXCL9_HUMAN is “no binding (tested: 300 nM)”.

B4: CCL22_HUMAN (ligand)
chain: GPYGANMEDSVCCRDYVRYRLPLRVVKHFYWTSDSCPRPGVVLLTFRDKEICADPRVPWVKMILNKLSQ
In turn, B4 gave a Kd in the experiment with P1243_AMBAM [2] of 22.3 nM.

B5: CCL19_HUMAN (ligand)
chain: GTNDAEDCCLSVTQKPIPGYIVRNFHYLLIKDGCRVPAVVFTTLRGRQLCAPPDQPWVERIIQRLQRTSAKMKRRSS
With B5, the Kd with P1243_AMBAM [1] came to 0.592 nM; with P991_AMBCA, 14.4 nM; in the experiment with P1243_AMBAM [2], 0.592 nM.

B6: P1124_IXORI (other)
chain: DSKGTSDSQDSTKSIKVDFCETNCTKTDGGWTGCTGDCICVSVGDSIEGRCMDFG
For B6, the binding result with CXCL10_HUMAN, with CXCL11_HUMAN, with CXCL14_HUMAN, in the experiment with CXCL7_HUMAN, with CXCL8_HUMAN and with CXCL4_HUMAN was “no binding (tested: 300 nM)” throughout. Further, the Kd in the experiment with CXCL12_HUMAN came to 212 nM.

B7: CCL27_HUMAN (ligand)
chain: FLLPPSTACCTQLYRKPLSDKLLRKVIQVELQEADGDCHLQAFVLHLAQRSICIHPQNPSLSQWFEHQERKLHGTLPKLNFGMLRKMG
On to B7, for which the equilibrium dissociation constant (Kd) with P1243_AMBAM [1] and with P1243_AMBAM [2] was 15.1 nM throughout.

B8: P458_IXORI (other)
chain: GSKQPGAAGSSSDSVEAVFCPTNCTKGTNGAWSGCSDDCICVHVGENTEGSCMKFSGDYDYPTPEA
Take B8: the binding result in the experiment with CXCL10_HUMAN, with CXCL11_HUMAN, with CXCL12_HUMAN, in the experiment with CXCL14_HUMAN, with CXCL7_HUMAN and with CXCL8_HUMAN was “no binding (tested: 300 nM)” in each case. Further, the binding result with CXCL4_HUMAN was “no binding (tested: 300 nM)”.

B9: CCL5_HUMAN (ligand)
chain: SPYSSDTTPCCFAYIARPLPRAHIKEYFYTSGKCSNPAVVFVTRKNRQVCANPEKKWVREYINSLEMS
Turning to B9, the Kd is 7.67 nM with P467_RHIPU; 1.74 nM with P1243_AMBAM [1]; 3.5 nM with P985_AMBPA; 1.47 nM with P991_AMBCA; 1.74 nM in the experiment with P1243_AMBAM [2].

B10: P1100_IXORI (other)
chain: GSKGSSASQSSDNSVVAKFCDTNCTINEGGKWTECKGGCFCVHVGNETVGRCMKLDGDYDYPSPKPEE
On to B10, for which the binding result in the experiment with CXCL12_HUMAN, with CXCL14_HUMAN, in the experiment with CXCL7_HUMAN, with CXCL8_HUMAN and in the experiment with CXCL4_HUMAN was “no binding (tested: 300 nM)” throughout.

B11: P1134_IXORI (other)
chain: NEEVFTVEYCGMNCTQKSDGTWTECSGKNKDCRCYHESDAREGLCLSTEYTDFSQFETPSNSDLEAATPRPRKTLYPVRNPHGPKTRGLGYDKRILRDRVKFLI
As for B11, the binding result with CXCL12_HUMAN is listed as “no binding (tested: 300 nM)”.

B12: CCL17_HUMAN (ligand)
chain: ARGTNVGRECCLEYFKGAIPLRKLKTWYQTSEDCSRDAIVFVTVQGRAICSDPNNKRVKNAVKYLQSLERS
Regarding B12, the Kd with P546_AMBCA was found to be 70 nM; with P1243_AMBAM [1], 0.734 nM; with P974_AMBCA it was 70.6 nM; in the experiment with P991_AMBCA, 7.66 nM; with P1243_AMBAM [2], 0.734 nM.

B13: CCL18_HUMAN (ligand)
chain: AQVGTNKELCCLVYTSWQIPQKFIVDYSETSPQCPKPGVILLTKRGRQICADPNKKWVQKYISDLKLNA
Take B13: the Kd in the experiment with P467_RHIPU was 16.6 nM; with P546_AMBCA it was 16 nM; in the experiment with P1180_AMBTR it was 5.8 nM; with P1181_AMBMA, 10 nM; with P1182_AMBMA it was 33 nM; with P1243_AMBAM [1] it was 0.00501 nM. The Kd came out at 17 nM with P974_AMBCA, 430 nM with P985_AMBPA, 0.209 nM with P991_AMBCA and 0.005 nM with P1243_AMBAM [2].

B14: P1096_IXORI (other)
chain: HTTVTGSVEGKPNNPNEDIEVSYCRMNCTVENGVSSACSGDCVCVHRDNEPNGICVEITYFGDFGDPSQDPSIDEAAPRESVSKRRSNGES
With B14, the binding result with CXCL9_HUMAN and in the experiment with CXCL12_HUMAN was “no binding (tested: 300 nM)” in each case.
